The source of these data is the supplement of paper PMC10567573.

B1: P2RY14 (parent)
chain: KKIFKSHLKSSRNSTSVKKKSSRN
B2: SMTNL2 (parent)
chain: ETAAGKGKGEARARLKRSQSFGVA
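Also: lentivirally expressed fusions sorted by FACS into six bins by GFP to DsRed ratio, PSI derived from sequencing read proportions per bin multiplied by bin number.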

Variants of B1 are the subject of the first series. The experiment in a line: protein stability index of a GFP-peptide fusion (GPS, HEK-293T) (PSI 1-6); higher = more stable. The settings on record: c terminus: a fixed tail appended.
As for KKIFKSHLKSSRNSDSVKKKSSRN [T15D], the protein stability index amounted to 4.28.

For the variant KKIFKSHLKSSRNSNSVKKKSSRN [T15N], the protein stability index turned out to be 4.45.

KKIFKSHLKSSRNSMSVKKKSSRN [T15M]: the protein stability index is 4.01.

KKIFKSHLKSSRNSHSVKKKSSRN [T15H]: the protein stability index is 4.01.

Regarding KKIFKSHLKSSRNSRSVKKKSSRN [T15R], the protein stability index was determined as 4.05.

KKIFKSHLKSSRNSSSVKKKSSRN [T15S]: the protein stability index was determined as 4.16.

Consider KKIFKSHLKSSRNSVSVKKKSSRN [T15V], for which the protein stability index came to 3.55.

Take KKIFKSHLKSSRNSLSVKKKSSRN [T15L]: the protein stability index was determined as 3.98.

As for KKIFKSHLKSKRNSTSVKKKSSRN [S11K], the protein stability index stood at 3.89.

As for KKIFKSHLKSRRNSTSVKKKSSRN [S11R], the protein stability index came to 4.44.

For the variant KKIFKSHLKSDRNSTSVKKKSSRN [S11D], the protein stability index amounted to 4.33.

Regarding KKIFKSHLKSWRNSTSVKKKSSRN [S11W], the protein stability index is 3.36.

Regarding KKIFKSHLKSARNSTSVKKKSSRN [S11A], the protein stability index was determined as 3.93.

Consider KKIFKSHLKSQRNSTSVKKKSSRN [S11Q], for which the protein stability index turned out to be 4.31.

For the variant KKIFKSHLKSPRNSTSVKKKSSRN [S11P], the protein stability index is 4.3.

For KKIFKSHLKSSRNSTSNKKKSSRN [V17N], the protein stability index stood at 4.21.

Regarding KKIFKSHLKSSRNSTSRKKKSSRN [V17R], the protein stability index was 4.49.

For the variant KKIFKSHLKSSRNSTSGKKKSSRN [V17G], the protein stability index was found to be 3.73.

On to KKIFKSHLKSSRNSTSSKKKSSRN [V17S], for which the protein stability index was determined as 4.03.

With KKIFKSHLKSSRNSTSKKKKSSRN [V17K], the protein stability index is 4.02.

On to KKIFKSHLKSSRNSTSDKKKSSRN [V17D], for which the protein stability index was 4.25.

As to KKIFKSHLKSSRNSTSTKKKSSRN [V17T], the protein stability index was found to be 4.41.

On to KKIFKSHLKSSRNSTSWKKKSSRN [V17W], for which the protein stability index was 3.6.

With KKIQKSHLKSSRNSTSVKKKSSRN [F4Q], the protein stability index came to 4.71.

Consider KKIIKSHLKSSRNSTSVKKKSSRN [F4I], for which the protein stability index amounted to 4.3.

For KKIFKSHLKSSRNSTSVKKKSSCN [R23C], the protein stability index amounted to 3.91.

Turning to KKIFKSHLKSSRNSTSVKKKSSWN [R23W], the protein stability index was found to be 3.51.

As for KKIFKSHLKSSRNSTSVKKKSSNN [R23N], the protein stability index is 4.25.

For the variant KKIFKSHLKSSRNSTSVKKKSSDN [R23D], the protein stability index amounted to 4.1.

Regarding KKIFKSHLKSSRNSTSVKEKSSRN [K19E], the protein stability index stood at 3.98.

As to KKIFKSHLKSSRNSTSVKMKSSRN [K19M], the protein stability index came out at 3.92.

In the case of KKIFKSHLKSSRNSTSVKFKSSRN [K19F], the protein stability index is 3.13.

Take KKIFKSHLKSSRNSTSVKGKSSRN [K19G]: the protein stability index was found to be 4.02.

KKIFKSHLKSSRNSTSVKAKSSRN [K19A]: the protein stability index stood at 3.98.

Take KKIFKSHLKSSRNSTSVKDKSSRN [K19D]: the protein stability index was determined as 3.6.

For KKIFKSHLKSSRNSTSVKWKSSRN [K19W], the protein stability index is 2.96.

Turning to KKIFKSHLKSSRNSTSVKQKSSRN [K19Q], the protein stability index is 4.

KKIFKSHLKSSRNSTSVKKKSERN [S22E]: the protein stability index was found to be 4.06.

For the variant KKIFKSHLKSSRNSTSVKKKSCRN [S22C], the protein stability index came to 4.07.

For the variant KKIFKSHLKSSRNSTSVKKKSWRN [S22W], the protein stability index worked out at 3.33.

Consider KKIFKSHLKSSRNSTSVKKKSTRN [S22T], for which the protein stability index is 4.19.

With KKIFKSMLKSSRNSTSVKKKSSRN [H7M], the protein stability index worked out at 3.79.

For the variant KKIFKSRLKSSRNSTSVKKKSSRN [H7R], the protein stability index stood at 4.28.

In the case of KKIFKSGLKSSRNSTSVKKKSSRN [H7G], the protein stability index is 4.27.

With KKIFKSKLKSSRNSTSVKKKSSRN [H7K], the protein stability index was 4.39.

In the case of KKIFKSELKSSRNSTSVKKKSSRN [H7E], the protein stability index is 4.41.

Take KKIFKSPLKSSRNSTSVKKKSSRN [H7P]: the protein stability index is 3.74.

In the case of KKIFKSWLKSSRNSTSVKKKSSRN [H7W], the protein stability index amounted to 3.3.

On to KKIFKSHLKRSRNSTSVKKKSSRN [S10R], for which the protein stability index was determined as 4.18.

As to KKIFKSHLKWSRNSTSVKKKSSRN [S10W], the protein stability index stood at 3.46.

On to KKIFKSHLKDSRNSTSVKKKSSRN [S10D], for which the protein stability index turned out to be 4.41.

For the variant KKIFKSHLKFSRNSTSVKKKSSRN [S10F], the protein stability index came out at 3.38.

On to KKIFKSHLKGSRNSTSVKKKSSRN [S10G], for which the protein stability index was found to be 3.81.

As for KKIFKSHLKPSRNSTSVKKKSSRN [S10P], the protein stability index is 4.24.

The variants in another series derive from B2. Described as above. Particulars: c terminus: a fixed tail appended.
For ESAAGKGKGEARARLKRSQSFGVA [T2S], the protein stability index came out at 4.66.

Consider ECAAGKGKGEARARLKRSQSFGVA [T2C], for which the protein stability index is 4.53.

With EHAAGKGKGEARARLKRSQSFGVA [T2H], the protein stability index was determined as 4.46.

As to EQAAGKGKGEARARLKRSQSFGVA [T2Q], the protein stability index amounted to 4.55.

Regarding EDAAGKGKGEARARLKRSQSFGVA [T2D], the protein stability index is 5.39.

As for EFAAGKGKGEARARLKRSQSFGVA [T2F], the protein stability index worked out at 4.46.

For the variant EPAAGKGKGEARARLKRSQSFGVA [T2P], the protein stability index was determined as 4.92.

As to EWAAGKGKGEARARLKRSQSFGVA [T2W], the protein stability index came out at 3.07.

Take EKAAGKGKGEARARLKRSQSFGVA [T2K]: the protein stability index amounted to 4.58.

EIAAGKGKGEARARLKRSQSFGVA [T2I]: the protein stability index turned out to be 4.11.

For the variant EAAAGKGKGEARARLKRSQSFGVA [T2A], the protein stability index was determined as 4.74.

With ENAAGKGKGEARARLKRSQSFGVA [T2N], the protein stability index was determined as 4.86.

As for EEAAGKGKGEARARLKRSQSFGVA [T2E], the protein stability index was found to be 4.83.

EYAAGKGKGEARARLKRSQSFGVA [T2Y]: the protein stability index worked out at 3.83.

For EVAAGKGKGEARARLKRSQSFGVA [T2V], the protein stability index came to 4.79.

Turning to ELAAGKGKGEARARLKRSQSFGVA [T2L], the protein stability index came to 4.36.

In the case of EMAAGKGKGEARARLKRSQSFGVA [T2M], the protein stability index was found to be 4.65.

As for EGAAGKGKGEARARLKRSQSFGVA [T2G], the protein stability index amounted to 4.71.

As for RTAAGKGKGEARARLKRSQSFGVA [E1R], the protein stability index amounted to 3.82.

With CTAAGKGKGEARARLKRSQSFGVA [E1C], the protein stability index is 4.05.

On to LTAAGKGKGEARARLKRSQSFGVA [E1L], for which the protein stability index was determined as 4.18.

For the variant ATAAGKGKGEARARLKRSQSFGVA [E1A], the protein stability index is 3.91.

For STAAGKGKGEARARLKRSQSFGVA [E1S], the protein stability index is 4.48.

On to FTAAGKGKGEARARLKRSQSFGVA [E1F], for which the protein stability index amounted to 3.21.

For YTAAGKGKGEARARLKRSQSFGVA [E1Y], the protein stability index amounted to 3.

For VTAAGKGKGEARARLKRSQSFGVA [E1V], the protein stability index came to 3.33.

On to HTAAGKGKGEARARLKRSQSFGVA [E1H], for which the protein stability index was determined as 3.94.

Take PTAAGKGKGEARARLKRSQSFGVA [E1P]: the protein stability index is 4.09.

Turning to ITAAGKGKGEARARLKRSQSFGVA [E1I], the protein stability index came to 3.58.

As for NTAAGKGKGEARARLKRSQSFGVA [E1N], the protein stability index was determined as 4.35.

In the case of MTAAGKGKGEARARLKRSQSFGVA [E1M], the protein stability index was 3.88.

Consider QTAAGKGKGEARARLKRSQSFGVA [E1Q], for which the protein stability index was determined as 4.03.

As for DTAAGKGKGEARARLKRSQSFGVA [E1D], the protein stability index stood at 4.49.

As to KTAAGKGKGEARARLKRSQSFGVA [E1K], the protein stability index is 3.82.

Consider TTAAGKGKGEARARLKRSQSFGVA [E1T], for which the protein stability index came out at 3.72.

As for GTAAGKGKGEARARLKRSQSFGVA [E1G], the protein stability index is 4.54.

As for WTAAGKGKGEARARLKRSQSFGVA [E1W], the protein stability index was determined as 3.63.

In the case of ETDAGKGKGEARARLKRSQSFGVA [A3D], the protein stability index stood at 4.72.

Consider ETCAGKGKGEARARLKRSQSFGVA [A3C], for which the protein stability index is 3.86.

For ETEAGKGKGEARARLKRSQSFGVA [A3E], the protein stability index turned out to be 4.94.
